Tested on: complement
Experiment: G-CSF mobilization: complement activation in bone marrow
Type: in vivo, mice

B1: G-CSF: used for G-CSF-mediated stem cell mobilization (bone marrow transplantation) (protein, UniProt P09919 31-207, looked up)
Granulocyte …: TPLGPASSLPQSFLLKCLEQVRKIQGDGAALQEKLVSECATYKLCHPEELVLLGHSLGIPWAPLSSCPSQALQLAGCLSQLHSGLFLYQGLLQALEGISPELGPTLDTLQLDVADFATTIWQQMEELGMAPALQPTQGAMPAFASAFQRRAGGVLVASHLQSFLEVSYRVLRHLAQP
complement activation in bone marrow (G-CSF mobilization, FIG. 8A and 8B): stimulates complement activation in bone marrow with iC3b deposition on stromal cells | complement activation in bone marrow (immunoglobulin-deficient SCID mice, FIG. 9A through 9F): does not activate complement

From patent US20070042930A1, “Effect of beta-glucan on stem cell recruitment and tissue repair” (priority 2002, published 2007)
